The results in this text go back to PMC12712053.

Experiment [1] has as its target human Mre11 core (HsMre11c) (human). The experiment can be described thus: native gel or EMSA.
Experiment [2] has the same target. In words: SEC.

For “human Mre11 core (HsMre11c) (domain or fragment)”, the stoichiometry N in experiment [1] and in experiment [2] was 2 throughout.

As a reminder, the stoichiometry N is the number of molecules, sites or subunits per partner or assembly.
